What was measured:
[1] = target: α-synuclein fibrils (human), P37840; assay: SPR, BIAcore X100, fibrils immobilised on CM5, mAb injected; settings: remark: other sources report otherwise
[2] = target: α-synuclein fibrils (human), P37840; assay: inhibition ELISA, fibrils against monomers; settings: remark: other sources report otherwise

Binder | Kd [1] [nM] | koff [1] [s⁻¹] | kon [1] [M⁻¹ s⁻¹] | Fold Affinity to Fibrils [2] [fold]
Syn-F1 (antibody) chain 1: DVQLVESGGDLVQPGGSRKLSCAASGFTFSSFGMHWVRQAPEKGLEWVAYINSGSSTIYYADTVKGRFTISRDNPKNTLFLQMTSLRSEDTAMYYCARGNNPGTGYYYSMDYWGQGTSVTVSS chain 2: not shown | 0.127 | 0.00156 | 1.23e+07 | 16600
Syn-F2 (antibody) chain 1: DVQLVESGGGLVQPGGSRKLSCAASGFTFSSFGMHWVRQAPEKGLEWVAYISSGSSTIYYADTVKGRFTISRDNPKNTLFLQMTSLRSEDTAMYYCARGNNPGTGYYYAMDYWGQGTSVTVSS chain 2: not shown | 2.69 | 0.00338 | 1.26e+06 | 3140

— patent publication US20140241987A1
